Substitutions are numbered along the chain they refer to.

First the molecules themselves.
B1: E. coli MscL (EcoMscL) M42C (natural protein, UniProt P0A742 1-136, looked up)
chain: MSIIKEFREFAMRGNVVDLAVGVIIGAAFGKIVSSLVADIICPPLGLLIGGIDFKQFAVTLRDAQGDIPAVVMHYGVFIQNVFDFLIVAFAIFMAIKLINKLNRKKEEPAAAPAPTKEEVLLTEIRDLLKEQNNRS
modifications: Alexa Fluor 488 and/or Alexa Fluor 568 maleimide on the introduced cysteine (stochastic labelling)
notes: Mechanosensitive channel of large conductance MscL, Escherichia coli, single cysteine mutant on TM1; The MscL gene was cloned into pQE-32 as a BamHI-SalI fragment; 5% labeled channels were mixed with 95% unlabeled ones for reconstitution; also called mechanosensitive channel of large conductance; source: E. coli M15, purified from DDM solubilized membranes (TALON, FPLC Superdex 200), …
B2: E. coli MscL (EcoMscL) Q80C (natural protein, UniProt P0A742 1-136, looked up)
chain: B1 chain with C42M, Q80C
modifications: Alexa Fluor 488 and/or Alexa Fluor 568 maleimide on the introduced cysteine (stochastic labelling)
notes: Mechanosensitive channel of large conductance MscL, Escherichia coli, single cysteine mutant on TM2; Same construct as m1 apart from the cysteine position; Pentamer on cited work; some hexamers not excluded; source: E. coli M15, purified from DDM solubilized membranes (TALON, FPLC Superdex 200), reconstituted into liposomes; not shown: His6, N-terminal, kept
B3: E. coli MscL (EcoMscL) Y75C (natural protein, UniProt P0A742 1-136, looked up)
chain: B1 chain with C42M, Y75C
modifications: Alexa Fluor 488 and/or Alexa Fluor 568 maleimide on the introduced cysteine (stochastic labelling)
notes: as for B2
B4: E. coli MscL (EcoMscL) V82C (natural protein, UniProt P0A742 1-136, looked up)
chain: B1 chain with C42M, V82C
modifications: Alexa Fluor 488 and/or Alexa Fluor 568 maleimide on the introduced cysteine (stochastic labelling)
notes: as for B2
B5: E. coli MscL (EcoMscL) A27C (natural protein, UniProt P0A742 1-136, looked up)
chain: B1 chain with A27C, C42M
modifications: Alexa Fluor 488 and/or Alexa Fluor 568 maleimide on the introduced cysteine (stochastic labelling)
notes: Mechanosensitive channel of large conductance MscL, Escherichia coli, single cysteine mutant on TM1; Same construct as m1 apart from the cysteine position; Pentamer on cited work; some hexamers not excluded; source: E. coli M15, purified from DDM solubilized membranes (TALON, FPLC Superdex 200), reconstituted into liposomes; not shown: His6, N-terminal, kept
B6: E. coli MscL (EcoMscL) I25C (natural protein, UniProt P0A742 1-136, looked up)
chain: B1 chain with I25C, C42M
modifications: Alexa Fluor 488 and/or Alexa Fluor 568 maleimide on the introduced cysteine (stochastic labelling)
notes: Mechanosensitive channel of large conductance MscL, Escherichia coli, single cysteine mutant on TM1 near the pore constriction; Same construct as m1 apart from the cysteine position; Pentamer on cited work; some hexamers not excluded; source: E. coli M15, purified from DDM solubilized membranes (TALON, FPLC Superdex 200), reconstituted into liposomes; not shown: His6, N-terminal, kept

The data set concerns the molecule itself. The data set can be described thus: FRET or BRET; single molecule FRET (TIRF) between one AF488 donor and one AF568 acceptor on the single cysteines of two subunits of one channel; channels in ~50 nm POPC liposomes with 2% BPE, immobilised on a coverslip by biotin-neutravidin; without and with 25% LPC.
For B1, the binding result is “binds”.

With B2, the binding result is recorded as “binds”. As to B3, the binding result was “binds”. B4: the binding result was “binds”. For B5 the value was “binds”. The value for B6 was “binds”.

These data come from paper PMC3925968, “Single molecule FRET reveals pore size and opening mechanism of a mechano-sensitive ion channel” (eLife, 2014).
